Laboratory results published in publication PMC6946805.

Target: Plasmodium yoelii erythrocyte-binding-like protein (PyEBL), C741 allele of P. yoelii nigeriensis strain N67C, HA::Flag-tagged (Plasmodium yoelii nigeriensis strain N67C)
Experiment: co-IP; anti-HA antibody immunoprecipitation of HA-tagged PyEBL from supernatants and solubilized pellets of iRBCs of all parasite stages lysed with saponin (0.1%) and centrifuged (1,455 x g, 4°C, 10 min); Western blot of the precipitates with anti-band 3 or anti-TER119 antibody

B1: band 3 (natural protein)
chain: MGDMRDHEEVLEIPDRDSEEELENIIGQIAYRDLTIPVTEMQDPEALPTEQTATDYVPSSTSTPHPSSGQVYVELQELMMDQRNQELQWVEAAHWIGLEENLREDGVWGRPHLSYLTFWSLLELQKVFSKGTFLLGLAETSLAGVANHLLDCFIYEDQIRPQDREELLRALLLKRSHAEDLGNLEGVKPAVLTRSGGASEPLLPHQPSLETQLYCGQAEGGSEGPSTSGTLKIPPDSETTLVLVGRANFLEKPVLGFVRLKEAVPLEDLVLPEPVGFLLVLLGPEAPHVDYTQLGRAAATLMTERVFRITASMAHNREELLRSLESFLDCSLVLPPTDAPSEKALLNLVPVQKELLRRRYLPSPAKPDPNLYNTLDLNGGKGGPGDEDDPLRRTGRIFGGLIRDIRRRYPYYLSDITDALSPQVLAAVIFIYFAALSPAVTFGGLLGEKTRNLMGVSELLISTAVQGILFALLGAQPLLVLGFSGPLLVFEEAFFSFCESNNLEYIVGRAWIGFWLILLVMLVVAFEGSFLVQYISRYTQEIFSFLISLIFIYETFSKLIKIFQDYPLQQTYAPVVMKPKPQGPVPNTALFSLVLMAGTFLLAMTLRKFKNSTYFPGKLRRVIGDFGVPISILIMVLVDSFIKGTYTQKLSVPDGLKVSNSSARGWVIHPLGLYRLFPTWMMFASVLPALLVFILIFLESQITTLIVSKPERKMIKGSGFHLDLLLVVGMGGVAALFGMPWLSATTVRSVTHANALTVMGKASGPGAAAQIQEVKEQRISGLLVSVLVGLSILMEPILSRIPLAVLFGIFLYMGVTSLSGIQLFDRILLLFKPPKYHPDVPFVKRVKTWRMHLFTGIQIICLAVLWVVKSTPASLALPFVLILTVPLRRLILPLIFRELELQCLDGDDAKVTFDEENGLDEYDEVPMPV
- band 3 signal divided by anti-HA signal, ratio N67C/N67, pellet fraction (fold (N67C over N67)): 3.3
- band 3 signal divided by anti-HA signal, ratio N67C/N67, supernatant fraction (fold (N67C over N67)): 3.1
